Source: the supplement of paper PMC10567573

B1: SPSB4 (parent)
chain: LDMDEGTLSFIVDGQYLGVAFRGL
B2: KCNAB2 (parent)
chain: IPPYSRASLKGYQWLKDKILSEEG

Variants of: B1
Assay: protein stability index of a GFP-peptide fusion (GPS, HEK-293T) (PSI 1-6); higher = more stable
Settings: c terminus: a fixed tail appended
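Further: lentivirally expressed fusions sorted by FACS into six bins by GFP to DsRed ratio, PSI derived from sequencing read proportions per bin multiplied by bin number.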

Protein stability index of substitutions, site by site:
L8: K 1.47 | F 2.3 | G 1.76 | S 1.67 | A 1.27
R22: N 2.46 | P 2.25 | M 1.99 | Q 2.1 | G 2.69
G6: S 4.16 | Y 3.87 | N 3.5
G23: W 4 | V 3.48 | P 2.1 | D 1.84 | F 1.96 | K 1.97 | C 1.86
L24: T 2.67 | A 1.22 | R 2.11 | G 1.69 | Y 2.76 | C 2.43 | Q 2.6 | D 1.78 | W 2.54
Q15: N 3.31 | I 2.02 | E 1.39 | V 2.19 | L 2.2
V12: P 1.7 | M 2.67 | H 1.62 | L 1.26
F21: S 2.18 | V 2.46 | W 2.48 | P 1.89 | K 2.39 | D 2.31 | E 1.96
Y16: V 3.47 | C 2.12 | H 2.37 | E 2.56 | W 1.9 | Q 1.26 | D 1.55 | P 2.27
E5: F 2.59 | S 2.79 | H 3.53 | W 3.01 | M 2.56 | L 2.51 | D 2.77 | C 3.63 | Q 2.7
L1: K 1.27 | A 1.83 | F 2.48 | T 1.86 | D 1.31 | G 1.65 | Y 1.32 | N 1.28
D13: V 2.9 | N 2.39 | S 2.61 | I 2.6 | P 1.82 | K 2.61
D4: K 2.15 | Q 2.4 | L 4.51 | I 3.21 | N 1.93 | P 1.66
D2: S 2.1 | A 2.04 | I 2.56 | T 3.9 | M 2.62 | Q 1.65
M3: K 2.9 | I 1.33 | V 2.67 | C 2.17 | G 2.09 | E 1.42 | F 2.33 | S 1.77
S9: K 1.99 | G 2.99 | E 2.58 | T 2.45 | V 1.81 | Y 2.89
V19: I 2.77 | P 2.43 | S 1.66 | N 1.98 | M 2.32 | E 1.85 | A 1.97 | H 2.07
T7: R 1.75 | V 1.86 | F 1.81 | H 1.94 | M 2.53 | G 2.27 | K 2.03 | P 1.64
G14: R 2.65 | V 1.95 | W 2.71 | Y 2.38 | M 2.88 | N 1.83 | H 3.15
I11: K 1.94 | H 3.77 | N 2.49 | Q 2.31 | D 1.68 | F 4.16 | M 2.28
F10: D 2.79 | M 1.73 | W 2.33 | H 2.14 | N 2.27 | S 2.13
G18: Q 1.42 | S 2.8 | P 1.26 | T 3.06
L17: M 1.67 | W 2.72 | T 1.69 | K 1.87
A20: W 2.61 | Y 2.4 | C 2.13 | L 2.51 | P 1.55 | T 2.03 | M 2.48 | I 2.13 | D 1.63 | E 1.88

Variants of: B2
Assay: as above
Settings: c terminus: a fixed tail appended

Protein stability index: each site, then its substitutions
G11: R 2.66 | W 3.38 | M 2.08 | P 2.46 | E 3.51 | K 1.78 | S 1.64 | I 2.37 | Q 2.96 | C 1.92 | D 2.89 | N 2.68 | F 3.33 | H 2.19 | T 2.1 | A 1.8
I1: H 2.59 | K 2.33 | E 3.38 | V 2.77 | N 2.5 | G 2.19 | L 2.08 | D 3.51 | S 3.37 | P 2.82 | C 2.43 | F 2.15 | T 2.99 | M 2.19 | A 2.6
Y4: F 2.14 | D 4.41 | K 2.77 | Q 2.96 | C 1.6 | A 2.77 | I 2.29 | V 2.49 | S 2.92 | E 4.16 | T 2.33 | R 2.35 | L 1.34 | M 1.83 | W 1.12 | G 2.76 | N 3.1
R6: P 2.67 | I 2.06 | N 2.74 | G 2.53 | S 3.06 | H 2.2 | V 1.7 | Q 3.23 | K 2.56 | C 1.94 | T 2.59 | F 2.16 | L 2.45 | M 1.95 | A 2.82 | E 3.93 | Y 1.6
S5: G 3.42 | K 2 | E 3.09 | F 3.12 | A 2.15 | Q 2.45 | N 2.21 | P 3.12 | T 2.42 | H 2.63 | R 1.82 | D 2.8 | Y 2.79
S8: I 1.58 | D 2.53 | H 2.97 | G 1.96 | P 2.64 | A 2.6 | T 2.24 | Q 2.72 | Y 1.9 | F 2.21 | N 2.53 | E 1.31
A7: N 2.22 | V 2.41 | T 2.23 | L 3.23 | P 2.45 | D 3.15 | Y 1.46 | I 1.93 | Q 2.58 | E 2.86 | R 1.95 | S 3.32 | F 2.23 | G 2.58 | C 1.59 | K 1.9 | M 1.8
P3: N 2.48 | T 2.06 | L 3.1 | Y 2.53 | E 2.5 | F 2.85 | R 3.2 | S 2.62 | H 1.74 | V 2.3 | C 1.51 | D 3.1 | K 2.75 | G 1.78 | I 2.28 | A 2.27 | Q 2.54
L9: M 2.24 | C 1.77 | H 2.38 | G 3.22 | A 2.56 | N 3.15 | W 2.22 | K 2.53 | D 2.44 | T 3.14 | E 3.2 | R 3.33 | F 2.61 | I 2.56 | Q 2.28 | P 3.25 | Y 2.4 | S 3.84
K10: R 1.68 | L 2.37 | S 3.34 | Q 3.27 | F 1.67 | D 3.49 | M 2.4 | I 2.2 | W 2.29 | H 2.91 | N 2.42 | G 2.88 | V 2.14 | T 3.38 | P 3.76 | E 3.57 | Y 2.84 | A 2.47 | C 1.72
P2: I 1.25 | Y 2.56 | V 3.44 | K 2.02 | A 1.52 | N 1.86 | L 2.04 | C 1.88 | E 2.87 | H 1.92 | F 2.2 | T 1.62 | Q 2.92 | R 2.62 | D 1.7 | M 1.37 | S 2.66
